PMC2564731 (Molecular Systems Biology, 2008)

Tests used:
Assay in all cases: pull-down
[1] = molecular target: T1, GLABRA3 (GL3), recombinant GST or His fusion protein (Arabidopsis, UniProt Q9FN69 1-637)
T1 sequence: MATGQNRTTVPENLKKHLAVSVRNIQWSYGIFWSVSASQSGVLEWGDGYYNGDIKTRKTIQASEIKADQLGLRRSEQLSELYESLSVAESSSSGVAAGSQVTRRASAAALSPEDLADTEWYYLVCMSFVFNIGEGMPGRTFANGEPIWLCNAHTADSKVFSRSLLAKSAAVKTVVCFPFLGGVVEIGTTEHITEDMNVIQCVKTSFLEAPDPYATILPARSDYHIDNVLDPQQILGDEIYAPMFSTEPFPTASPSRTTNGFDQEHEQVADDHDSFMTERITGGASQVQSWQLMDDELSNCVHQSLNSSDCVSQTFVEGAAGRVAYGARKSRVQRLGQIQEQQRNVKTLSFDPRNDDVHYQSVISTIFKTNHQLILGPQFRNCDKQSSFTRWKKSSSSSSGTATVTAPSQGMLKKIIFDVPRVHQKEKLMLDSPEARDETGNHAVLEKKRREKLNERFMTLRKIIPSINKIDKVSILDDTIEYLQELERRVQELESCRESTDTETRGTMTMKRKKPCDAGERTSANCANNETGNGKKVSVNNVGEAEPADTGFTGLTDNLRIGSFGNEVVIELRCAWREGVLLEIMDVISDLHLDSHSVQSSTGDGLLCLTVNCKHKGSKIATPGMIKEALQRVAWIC

[2] = molecular target: T2, ENHANCER OF GLABRA3 (EGL3), recombinant GST or His fusion protein (Arabidopsis, UniProt Q9CAD0 1-596)
T2 sequence: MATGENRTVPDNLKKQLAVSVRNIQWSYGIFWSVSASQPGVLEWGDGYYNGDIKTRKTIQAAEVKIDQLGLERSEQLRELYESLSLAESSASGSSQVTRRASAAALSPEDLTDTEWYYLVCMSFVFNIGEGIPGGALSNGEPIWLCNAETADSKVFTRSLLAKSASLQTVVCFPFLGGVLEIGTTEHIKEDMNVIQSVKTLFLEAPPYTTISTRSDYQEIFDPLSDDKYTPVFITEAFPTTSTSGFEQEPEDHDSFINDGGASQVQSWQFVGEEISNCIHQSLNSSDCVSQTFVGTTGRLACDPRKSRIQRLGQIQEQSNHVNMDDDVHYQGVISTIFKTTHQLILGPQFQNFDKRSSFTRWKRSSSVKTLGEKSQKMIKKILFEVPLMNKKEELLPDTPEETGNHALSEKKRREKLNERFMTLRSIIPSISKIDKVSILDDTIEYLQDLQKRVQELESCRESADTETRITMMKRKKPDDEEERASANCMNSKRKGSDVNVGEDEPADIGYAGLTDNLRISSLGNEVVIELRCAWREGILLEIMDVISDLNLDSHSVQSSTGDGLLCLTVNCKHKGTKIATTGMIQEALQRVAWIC

[3] = molecular target: T3, GLABRA1 (GL1), recombinant GST or His fusion protein (Arabidopsis, UniProt P27900 1-228)
T3 sequence: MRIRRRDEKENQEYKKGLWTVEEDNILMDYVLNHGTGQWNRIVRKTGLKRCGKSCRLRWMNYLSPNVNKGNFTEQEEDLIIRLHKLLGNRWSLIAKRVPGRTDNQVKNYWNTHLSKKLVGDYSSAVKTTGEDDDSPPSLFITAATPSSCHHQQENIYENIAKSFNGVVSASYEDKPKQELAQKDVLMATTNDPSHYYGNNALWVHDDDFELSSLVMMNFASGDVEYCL

Measured: binding result

B1: TRIPTYCHON (TRY), recombinant GST or His fusion protein (natural protein)
chain: MDNTDRRRRRKQHKIALHDSEEVSSIEWEFINMTEQEEDLIFRMYRLVGDRWDLIAGRVPGRQPEEIERYWIMRNSEGFADKRRQLHSSSHKHTKPHRPRFSIYPS
binds: [1] | [2] | [3]
